The results in this text go back to the domain aggregation screens of Martell et al. (2025).

The nature of the data set: soluble fraction after stress (log2 fold change); higher = more stays soluble; pooled small domains, quantitative proteomics. The note with it: stress: 75 degC.
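Note: 20 min heating vs room temperature control held 20 min.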

Take “HMREPQMVTVNGDKVTHGHAYRSNVNPEDWYFTARINGQQLKPQKMEPADVAAYDKKEIGVPELMQR”: the “soluble fraction (log2)” value is -0.275.
The result for “HMRESPYRRVAKFLLLIGTAEAAKIVSRLDQDQVEKVMLELSGIRSVPRDEATVILAEFESLLQQAR” reads -2.03.
Next, “HMRESRLFQILYQLLTKKKVTAANLAKQFEVSVRTIYRDIDALSSSGIPIYASQGKNGGIQLDEDF”: -0.992; “HMRETELPVTIISAGRILAENLHLAGRDGGWLEAELKRRSLTAEQVLLLTVDAAGTVYLVRKEDL”: -2.1; “HMREWPLWEIFIRGQHGLNHRHVGSLHAPDAAMAIGNARDVYTRRNEGVSIWAVRSADVVASVPSE”: -2.08.
Next, “HMRGADNAASILKEVGPHPEDGKPITVRSGRYGPYVKHGTTNATLPKDIKPEEITLDEAIALINERVAKG”: 0.018.
“HMRGGKGTVPDVTGMDAAAAVRILEKAGMNVAYIRGAGFVAEQTPAAGTKLKKGDKAYITLSWK”: the “soluble fraction (log2)” value was -0.622.
Regarding “HMRGGWESLTDREREIAVLAAEGHSNRTIASTLFISDRTVQSHVSRALRALGVDSRTGIPSLVTTATR”, the “soluble fraction (log2)” value is 0.09.
Next, “HMRGWGTVKRRTPKSGRYRASYIGPDGKRYAADHTYAAKVDADAWLSSERALITAGVWTPPTDRVT”: -0.688; “HMRHLSVPSQDTQQVLQRLKVELALPEGARVRSDPSDPGRRLIPFTESVPQEMIDQYPVVSINI”: -0.147.
Turning to “HMRIAGIDIPDNKRGEVALTYIFGIGRSSSKKILKSAGIDSDKQIGKWTDDESNLVRKLIRDEYTIEGDL”, the “soluble fraction (log2)” value is -0.312.
The result for “HMRIASANAIYDELLNKRDDAKLAELKQEDINLYALYILQNGSADERAALENTQGIDVVLKEIINLQNG” reads -0.305; that for “HMRIGINDRIHEIVDVLRLKKSTPFEDLFSGLVTRFDLVITFLALLEMGKLRLLRLYQTDPLAPLHVEYTG”, -0.0164; that for “HMRILDFPALKTEFDQLTKDLMAKYPEDGADRVRAIIETVLGPGKKVGALQPHQAELLAEVNTSLKANL”, -0.0738.
Take “HMRILGIDPGTRITGYGIIDIEGNRLRHVDNGIIKTRSSDALPLRLKVIYDGLTAVLKQYSPQAV”: the “soluble fraction (log2)” value is 0.23.
On to “HMRIQTVDYNTFISMVEDGKVDAAEIQQQENRILFSDQDQKVYKTAMVPDDDLTQRLLDAGVSTNG”, for which the “soluble fraction (log2)” value turned out to be 0.726.
As for “HMRISKRQLILESAAAIINEKGADYLTLDAVAQRAGISKGGLFYHFKSKDELIKELVNYANN”, the “soluble fraction (log2)” value was -1.56.
Next, “HMRISLKAQVYEYLKQAIINGDLKVGEIYSEQYFADKLSISRTPVREAILQLQHENMVEVKANRGIIVK”: -2.73; “HMRITTKNYFKAISEVGFENLPEVLKKSHLVIEEKTNKGNDWGIYENDAEAKKVFDLAFDKLEEFIDRKED”: 0.461; “HMRIVQTDYRNFLSQVESGAVRSVQIDETQIRYTALDSGGKEIVYNTGKVDDPGLVNRLYDAGVEFSQVIP”: -0.132.
Turning to “HMRKATEVPFTAFKDSIENSHGKLSKAGLARHLADEYGMSQRNMERRINNLIDNKTIKYGNEGGLVWIG”, the “soluble fraction (log2)” value is -0.104.
The result for “HMRKDWTPGAFVEAFVNDTPATRSTILAKAVSAGLSRWAADNLLRTADNDGLMVRQGSGKRNEPFTYRRGP” reads -0.257.
The result for “HMRKEEFIRELVLELKQNVSEQVILEQKRFYEEYILTEVRGGKTEEEVIASLSEPRLLAKSIIDAAEAGGD” reads -1.3; that for “HMRKKDGEAYVLPRPLKKGDSVLIYDIDKKGTVLQPPEKGGKTALIQAGIIQTRVPVSNLRLLE”, 0.537.
Turning to “HMRKKIIAQTLEEIRKSKGYSQKQVAAFIKVKPTTYNTYESGRTEPPAEILVRLSYLYRTPVDTLVQRDR”, the “soluble fraction (log2)” value was -2.13.
Next, “HMRKMNDAVFYVEMSRPKRGYYTATYKLITRNPNSLPEHEITRRFFQMLEETIRKNPPYYLWTH”: -0.527.
“HMRKPISQEIVDEVLKLAKNNPDWGYDRIAGVMKYLKYDVSATTVRHILDDNGIVPDPERRLR”: the “soluble fraction (log2)” value was 0.23.
On to “HMRKRLLQLVHIGKSQLGMDDETYRSLLSQQFYQNSAKNISYSELVKLVKILQQKGAKIRLPH”, for which the “soluble fraction (log2)” value was -2.17.
As for “HMRKVVLEEKEANYYAEPNSESELLGVLKRGIHLTVTDVKKEAGSDGWVKLVHPDGQEGWISGRARIRV”, the “soluble fraction (log2)” value was -0.212.
The result for “HMRKYKIKEELPDNIYKIIQDNPGIVQKDIYDILGREYQQNISSYIYSMDKNGVIKRDKHGNSYKLYL” reads -0.119; that for “HMRLATSELVYRIRALIRDQELQPGERLGSERALAQSLGISRSDLRMALAVLEASHEVIRKIGRAGGIVVS”, -3.18; that for “HMRLHSSGEDYLKAIFILEAQHSSVRSVEVAEYMNVSKASVSHAVALLKKNGFLKMNQDYDLTER”, -0.163.
The result for “HMRLIALPSVTDISIRQAEATLMSIGIKVSSIQYAPSEYKDLVLEVKYRGQSIIQGAKIPEGSSVVLVAGN” reads -3.21; that for “HMRLPLYLALAQTLRQEIDAKQYKIGAHLPPEDQLVVKYGVSRHTVRQALQELKNEGLITSKAGIGTIVSS”, -1.56; that for “HMRLPQEVWEKIRAAYEAHGLSFSELAEMYGVNKSNISRRAKAEGWNQAETQRLITATVENE”, 0.374.
The result for “HMRLREETRKVDKTGLIQVDGRHYRVPDEYSQKDVQILMDDNSIMVYRKGDFVIELDKETSVYMPH” reads 0.347; that for “HMRMETRILTADESGIRLDAFLASRLAVSRSLAASLIDDGNVTLNGTVPKKKTAVNVGDILEVAMP”, -0.987.
Take “HMRMLTKRRQDLLLELLEERGSITVSEVKDMLDASESTIRRDITALDEEGKLVKVFGGAVAAR”: the “soluble fraction (log2)” value was -0.345.
As for “HMRMSRSARLFDLLHILRSHRRAVSGQALAQQLGISIRTLYRDIASLQAQGAKIEGEPGVGYMLKP”, the “soluble fraction (log2)” value is -1.82.
The result for “HMRMTKQRQAVLDELTRVTDFRSAQQIFEDLHSQGHRVGLATIYRSLQGLAEDGSVDTLRSSDGESLY” reads -0.206; that for “HMRMTRQRKVILEELGKVYTHPTADEIYTMVKEKLPNISLGTVYRNLDLLAENNQVLKLETAGNIRRYD”, -0.17; that for “HMRMYDVNEYSDEELHRILDLSSPTDSELEARILQMIQKYKYTNGGDNEKMAVFFENIYHHFFD”, -1.65.
Turning to “HMRNAAGGIYGWMTLHQVAETVKLTEEEVIAITNLPAGIPRDVSLKNIEGVNDEELRALLEAYLEKQ”, the “soluble fraction (log2)” value is -1.34.
With “HMRNISLSLRWHSGEWTADRLKSEVLALPGAMDMTVFEPQSQAYLRVEQGFDTKLLPAGIDVH”, the “soluble fraction (log2)” value was -1.31.
Consider “HMRNNKLRRANKLKTEFENLPHIGKKRAHVLLKAFGSTENLKMTTAQALSEAAKISLKQAEEVLEAVRG”, for which the “soluble fraction (log2)” value was -0.466.
The result for “HMRNQIRAVITPVPNQERYTVEMTIDDDAGNLLTLQMAAPDRQQAAEFAQRFQKHPEALYHAVLSVLL” reads -0.214.
The result for “HMRNSFTVENTGERLDVFLTGQMPEFSRSHIQKLIASGQAWVNGVNRKGNFKLKPHDVVELEVPEPE” reads 0.381; that for “HMRNSVQREWIYDYIQRQDAHLSADEIYEGLLKEGKNISLATVYRNLSILVDEYKIASVMTDSKKQVYDK”, -2.56.
The result for “HMRNTPQRRHAILALLSEQGEVSVDALAKRFSTSEVTIRKDLAAMESHGLLLRRYGGAVPMPQELI” reads -1.63; that for “HMRPEVALSSRELEILEALATGKSNKELAQRLFISEATVKTHLIHIYQKLGVDTRTAAVTVARERKL”, -2.3; that for “HMRPEVTEHLKTADAILHGGDINRQSIVDELRQYAPLYIVRGNNDKDWAEAIPHDLTVTLGGVTFFMVHNR”, -0.0851.
For “HMRPFAMNLLEKHKADIEVWLKHPNMTNTQIKRLLEELGTSVSVSSIDRFISTSFPKLPKHT”, the “soluble fraction (log2)” value is -0.121.
The result for “HMRPIWVQLADDFRHRIVSGQWPPGSKIPSVRELAAETGVNPNTVQRALGALDGEGLTATERTAGRFVTT” reads -0.266; that for “HMRPKVADIDYFDGKTFTIEDGSKHSITTSEAKKIYFYLVKNGYVDDESHVTDAYRSAATSGTLA”, 0.0416; that for “HMRPQELSSLNTNQMRLYNSLPEAFITAEAKDIADKLRYSERSLFRFLNESNLFTKTEHGSYAKKA”, 0.0879.
Consider “HMRPQYVDLFTKLSAEEAGAITSKLKELKVEYQLADNGSTIKVPQKDAAEIRLELANEGLPA”, for which the “soluble fraction (log2)” value turned out to be 0.138.
The result for “HMRPRQDRSEETRDRILDAVVELIAERGLAGVSHRAVADRAGVSLSATSYYFGSKAELERAALEEHYRR” reads -0.881; that for “HMRPSGEAVNAAYRLLKGANPSGNEGDLIQRAQEVAAILPKLNRSSAAAFAKDAKANGLTQAETIALWKGS”, 0.135; that for “HMRPTYRTRLEVLINNPAISGRDLDFAQSLLSYYERKGRLSAGRVKWVTTLEERYSPENLAASAAK”, -0.856.
Next, “HMRQFEPVEGYNPYADKNELHGYEYWGAKFADSRSPEETAWIKQQIDDENEDRRFISEAGLA”: 0.0889.
The result for “HMRQQQISAAIKTSVNGTVDYYVRRLPERDPRGDFLEVWDDLQKVIQAAHGIQVSHDELYEYFRRLK” reads -0.833.
In the case of “HMRQQSLHSLYRDHHSWLQNWLRRQLGNTWDAADLSQDTFIKVLASSQSVAEIREPRAYLLTVGKRL”, the “soluble fraction (log2)” value was -0.294.
The result for “HMRQSDIAAAFRESILRSSKGFQYLHTRDFVTALRRRGIHLSEVEANSWIAREKTYFVDSALDHSENRLWI” reads -1.65.
Next, “HMRQSIHTALQLLTPREEEVLNLLVSGKSNKQVAEHFSLSSKTIERHRSSVMRKLDASSFAQLVRIAALR”: -3.27; “HMRQYPSGVFKEEGVKAVYIHAGTPFLVIAAQYKIPLARLFEWNNLLPSTEARISQVIYLERPG”: -3.92.
Next, “HMRRARVAGKGHFTGEDAMAVYRELEALFGETETLYLPGHRPFEAVLSKLALIGVPEKNTVPYTFAFVET”: -0.392.
Consider “HMRREIRLTVTEEIVLMKFLLTQIPYKNRDNFKTLLNDRQIRVNGSVVTWYNHPLKPGQEVTIGWFKM”, for which the “soluble fraction (log2)” value was -0.264.
In the case of “HMRRPRGVFNLVPGKRFGFITPDGGGEDVFAHLANVRAGHVAEDRNAVEYGIGRGPDGRDQAVDIVPMP”, the “soluble fraction (log2)” value was -0.329.
Regarding “HMRRQRNPEIFDQLVNKFHFTFTQTQQLKQLIKRWHMLFPGKSLKSAIQGYKSAKEILTYINDSLDVVE”, the “soluble fraction (log2)” value was 0.213.
The result for “HMRRRTLRQGATGSDVHAVQRLLNVDGAGLRTDGIFGPATERAVIAYQRKHGLAVDGVVGRETWTALLG” reads -0.743.
